Measured values reported in patent US20190367620A1 (Merck KGaA, published 2019).
Positions count from the first letter of the chain named.

How the values were obtained:
Assay in all cases: SPR; free energy change relative to wild-type D2
[1] = target: T1, FGFR1 D2 point mutant A55G (human, UniProt P11362 22-254)
T1 chain: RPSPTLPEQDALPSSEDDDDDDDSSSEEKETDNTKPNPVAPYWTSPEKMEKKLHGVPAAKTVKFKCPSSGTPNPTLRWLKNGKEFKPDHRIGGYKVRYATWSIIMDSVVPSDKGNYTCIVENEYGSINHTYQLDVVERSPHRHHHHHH
Protocol: (§1) Binding affinities of anti-FGFR1 antibodies to FGFR1 were measured by Surface Plasmon Resonance (SPR) using a GE Healthcare BIAcore 4000 instrument as follows. Goat anti-human Fc antibody (Jackson ImmunoResearch Laboratories #109-005-098) was first immobilized on BIAcore carboxymethylated dextran CM5 chip using direct coupling to free amino groups following the procedure described by the manufacturer. Antibodies were then captured on the CM5 biosensor chip to achieve approximately 200 response units (RU). Binding measurements were performed using the running HBS-EP+ buffer. A 2-fold dilution series of His-tagged FGFR1 proteins were injected at a flow rate of 30 μl/min at 25° C. Association rates (kₒₙ, per mol/s) and dissociation rates (koff, per s) were calculated using a simple 1:1 Langmuir binding model (Biacore 4000 Evaluation Software). The equilibrium dissociation constant (KD, mol) was calculated as the ratio of koff/kₒₙ.
(§2) To obtain a finer, residue-level mapping of the epitope and to complement the HD exchange data, molecular modelling and manual inspection of the crystal structure of FGFR1 [(Beenken et al. 2012); PDB record 3OJV] was used to select solvent exposed residues within and around the epitope identified by HD exchange. The selected residues were mutated either to alanine (large to small) or to glycine if the selected residue was alanine. In total 35 point mutants were designed, expressed and purified in HEK cells, and tested for binding to mAb #A08 using surface plasmon resonance as described in Example 1.8. The affinity of the antibody for wild-type and each mutant was determined and used to calculate the contribution of each epitope residue to the binding energy.
(§3) Variant were compared to wild-type D2. The change in the Gibbs free energy of binding of mutant relative to the wild-type D2 construct (ΔΔGₘᵤₜ) was derived from the ratio of the wild-type and mutant KD.

[2] = target: T2, FGFR1 D2 point mutant G93A (human, UniProt P11362 22-254)
T2 chain: T1 chain with G55A, G93A
Protocol: as §1, §2, §3

[3] = target: T3, FGFR1 D2 point mutant A58G (human, UniProt P11362 22-254)
T3 chain: T1 chain with G55A, A58G
Protocol: as §1, §2, §3

[4] = target: T4, FGFR1 D2 point mutant G92A (human, UniProt P11362 22-254)
T4 chain: T1 chain with G55A, G92A
Protocol: as §1, §2, §3

[5] = target: T5, FGFR1 D2 point mutant I104A (human, UniProt P11362 22-254)
T5 chain: T1 chain with G55A, I104A
Protocol: as §1, §2, §3

[6] = target: T6, FGFR1 D2 point mutant V56A (human, UniProt P11362 22-254)
T6 chain: T1 chain with G55A, V56A
Protocol: as §1, §2, §3

[7] = target: T7, FGFR1 D2 point mutant D106A (human, UniProt P11362 22-254)
T7 chain: T1 chain with G55A, D106A
Protocol: as §1, §2, §3

[8] = target: T8, FGFR1 D2 point mutant S107A (human, UniProt P11362 22-254)
T8 chain: T1 chain with G55A, S107A
Protocol: as §1, §2, §3

[9] = target: T9, FGFR1 D2 point mutant P57A (human, UniProt P11362 22-254)
T9 chain: T1 chain with G55A, P57A
Protocol: as §1, §2, §3

[10] = target: T10, FGFR1 D2 point mutant K48A (human, UniProt P11362 22-254)
T10 chain: T1 chain with K48A, G55A
Protocol: as §1, §2, §3

ΔΔGmut [1]: 0.07 kcal/mol
ΔΔGmut [2]: 0.29 kcal/mol
ΔΔGmut [3]: 1.44 kcal/mol
ΔΔGmut [4]: 0.21 kcal/mol
ΔΔGmut [5]: 0.93 kcal/mol
ΔΔGmut [6]: 0.2 kcal/mol
ΔΔGmut [7]: 1.92 kcal/mol
ΔΔGmut [8]: 0.13 kcal/mol
ΔΔGmut [9]: 0.44 kcal/mol
ΔΔGmut [10]: -0.46 kcal/mol
B1: mAb #A08 (antibody, V domains shown)
VH: EVQLQESGPGLVKPSGTLSLTCAVSGGSISSNNWWSWVRQPPGKGLEWIGEIYHSGSTSYNPSLKSRVTISVDKSKNQFSLKLNSVTAADTAVYYCARGTDWFDPWGQGTLVTVSS
VL: QAVLTQPPSVSVAPGQTARITCGGNNIGSESVHWYQQKPGQAPVLVVYDDSDRPSGIPERFSGSNSGNTATLTISRVEAGDEADYYCQVWDSTSDHRVFGGGTKLTVL
notes: Only variable domains are tied to the name mAb #A08 (hit); also called #A08 hit; mAb #08
